Assays:
[1] = substrate: F protein of RSV B-1 (respiratory syncytial virus B-1) (UniProt O36634); experiment: cell-based or functional assay
[2] = substrate: F protein of RSV B-wash (strain 18537) (respiratory syncytial virus B, strain 18537) (UniProt P13843); experiment: cell-based or functional assay
Chain of F protein of RSV B-wash (strain 18537) (respiratory syncytial virus B, strain 18537) (P13843 26-574): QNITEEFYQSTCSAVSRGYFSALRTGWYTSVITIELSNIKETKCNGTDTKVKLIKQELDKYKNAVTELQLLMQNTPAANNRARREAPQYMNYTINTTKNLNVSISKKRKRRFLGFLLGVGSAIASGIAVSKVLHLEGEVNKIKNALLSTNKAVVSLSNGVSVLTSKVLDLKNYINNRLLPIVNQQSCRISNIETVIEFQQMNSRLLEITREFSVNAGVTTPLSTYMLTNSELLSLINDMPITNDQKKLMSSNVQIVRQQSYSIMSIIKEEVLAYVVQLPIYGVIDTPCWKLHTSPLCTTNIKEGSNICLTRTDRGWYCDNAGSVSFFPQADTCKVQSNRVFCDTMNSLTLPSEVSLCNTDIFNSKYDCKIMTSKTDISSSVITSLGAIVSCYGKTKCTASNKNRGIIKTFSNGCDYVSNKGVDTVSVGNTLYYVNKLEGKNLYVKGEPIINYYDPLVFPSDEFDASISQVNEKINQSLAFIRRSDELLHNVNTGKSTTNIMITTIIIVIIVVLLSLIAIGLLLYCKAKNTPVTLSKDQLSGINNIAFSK

Chain of F protein of RSV B-1 (respiratory syncytial virus B-1) (O36634 26-574): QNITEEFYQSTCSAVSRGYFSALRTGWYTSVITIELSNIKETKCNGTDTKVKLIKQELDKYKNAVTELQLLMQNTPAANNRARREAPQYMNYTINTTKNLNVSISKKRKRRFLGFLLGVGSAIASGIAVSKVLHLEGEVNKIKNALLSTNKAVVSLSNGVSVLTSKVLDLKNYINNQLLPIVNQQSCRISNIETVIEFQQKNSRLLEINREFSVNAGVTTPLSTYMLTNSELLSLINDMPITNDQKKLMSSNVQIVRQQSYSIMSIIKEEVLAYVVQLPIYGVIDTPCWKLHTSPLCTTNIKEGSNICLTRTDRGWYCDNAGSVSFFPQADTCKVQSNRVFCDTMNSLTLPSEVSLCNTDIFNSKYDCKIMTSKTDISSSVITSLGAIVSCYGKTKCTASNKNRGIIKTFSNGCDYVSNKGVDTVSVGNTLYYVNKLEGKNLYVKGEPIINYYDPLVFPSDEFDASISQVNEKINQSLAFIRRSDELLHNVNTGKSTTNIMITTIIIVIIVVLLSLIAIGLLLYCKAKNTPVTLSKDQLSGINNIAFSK

B1: IgG form of 90D3 (antibody, V domains shown)
VH: QVQLVESGGGLVKPGGSLRLSCVGSGFTLKNYEMNWVRQAPGQGLQYISYISSSGNVVKYVDSVQGRFTISRDNAGNSLYLQMNNLRAEDTATYYCVRGFSIDKYDSSVDEYWGQGIAVTVSS
VL: AIRLTQSPSSLSASVGDRVSITCRASQSISNFLNWYQQKPGRAPKLLISAASSLQGGVPSRFSGSGSGTDFTLTISSLQPEDFATYYCQQTYISLYTFGQGTKLEIKR
In the case of B1, the ED50, plaque reduction, RSV B-1 [1] is reported as 1.4 nM and the ED50, plaque reduction, RSV B/wash [2] is reported as 1.4 nM.

From patent US20140363427A1
